We go through six molecules from paper PMC12218921, “An adaptive peptide-binding site in ubiquitin receptor hRpn13 revealed by structural studies” (Nature Communications, 2025).

For orientation: EC50 means the midpoint of the concentration-response curve.

Sequences and labels used below:
B4: TAMRA-labeled hRpn2 (940–953) (peptide)
peptide: QEPEPPEPFEYIDD
modifications: also: TAMRA attached, position not given here
notes: also called TAMRA-hRpn2; source: bought: New England Peptide
B5: hRpn13_ΔMTT (domain or fragment, human)
chain: GSSGALFPSLVPGSRGASNKYLVEFRAGKMSLKGTTVTPDKRKGLVYIQQTDDSLIHFCWKDRTSGNVEDDLIIFPDDCEFKRVPQCPSGRVYVLKFKAGSKRLFFWMQEPKTDQDEEHCRKVNEYLNNPPMPGALGASGSSGHELSAL
notes: hRpn13 (ADRM1), human, hRpn13 (1-150) without M1-T3; 15N-labelled for NMR; also called hRpn13 Pru variant with ENT M1 – T3, aG, and bP deleted; source: E. coli BL21 (DE3), purified (glutathione sepharose, thrombin cleavage, Superdex 75); not shown: GST, N-terminal, cleaved

For the data set “hRpn13_ΔMTT”, the target named is B5. Put plainly: fluorescence polarisation; competition: unlabeled peptide at various concentrations preincubated with 80 nM hRpn13_ΔMTT, then 10 nM TAMRA-hRpn2 (940–953) added; PBS with 1 mM TCEP, room temperature; [Inhibitor] vs response (three parameters) fit; estimated EC50. As to conditions: both partners purified.
Data set [1] concerns the molecule itself. Kind of data set: crystal structure; hRpn13 (1–150) at 560 μM in 20 mM HEPES pH 7.5, 100 mM NaCl, 1 mM TCEP; microbatch-under-oil at 4 °C with 0.1 M sodium acetate pH 4.6, 22% PEG3350; one molecule per asymmetric unit, ENT at the interface of Pru molecules of the lattice; 1.85 Å.
The target in data set [2] is B4. Put plainly: fluorescence polarisation; hRpn13_ΔMTT titrated against TAMRA-hRpn2 (940–953); PBS with 1 mM TCEP, room temperature; [Agonist] vs response (three parameters) fit. The conditions noted are these: both partners purified. On the technique in general: Fluorescence polarisation rises when a labelled molecule tumbles more slowly, as on binding a larger partner.

A further data set deals with T1, K48-diUb^D77 (human, UniProt P0CG48 1-76; P0CG48 1-76, K48R, G76 joined by an isopeptide bond to K48 of the other ubiquitin | K48 joined by an isopeptide bond to G76 of Ub-K48R).
T1 construct: Ub-K48R (distal, by the methods): ubiquitin, human; Ub-D77 (proximal, by the methods): ubiquitin, human; additional aspartate at position 77 (Ub-D77); Two ubiquitins joined covalently K48-G76; The results call the extended moiety distal, the methods call it proximal; also called K48-linked diubiquitin; source: made enzymatically (E1 from R&D Systems, E2-25K) from ubiquitin proteins expressed in …
Kind of data set: NMR titration; 1H-15N HSQC of 0.1 mM 15N-labeled hRpn13_ΔMTT alone and with unlabeled ligand (peptides at varying molar ratios up to 20-fold excess; hRpn2 (940-953) or ubiquitin equimolar, alone or together with 20-fold EDGEGEE; K48-diUb at 4:1, 2:1 and 1:1 hRpn13 to diUb); NMR buffer (20 mM sodium phosphate pH 6.5, 50 mM NaCl, 1 mM TCEP, 10% D2O), 25 °C, 600 MHz. The conditions noted are these: both partners purified.

The target in the next data set is T2, ubiquitin (human, UniProt P0CG48 1-76).
T2 construct: ubiquitin, human, the 76-residue cut product of the polyubiquitin precursor; source: E. coli Rosetta 2(DE3), untagged, purified (cation exchange, SEC)
Described as above. The conditions noted are these: both partners purified.

Another data set addresses T3, K48-diUb^ENT (human, UniProt P0CG48 1-76; P0CG48 1-76, K48R, G76 joined by an isopeptide bond to K48 of the other ubiquitin | K48 joined by an isopeptide bond to G76 of Ub-K48R).
T3 construct: Ub-K48R (distal, by the methods): ubiquitin, human; Ub-ENT (proximal, by the methods): ubiquitin, human; 6-residue linker added to the ubiquitin C-terminal end; Two ubiquitins joined covalently K48-G76; The results call the extended moiety distal, the methods call it proximal; also called K48-linked diubiquitin with Ub-ENT; source: made enzymatically (E1 from R&D Systems, E2-25K) from ubiquitin …
The data set is described as above. The conditions noted are these: both partners purified.

A further data set addresses T4, K48-diUb^EDGEGEE (human, UniProt P0CG48 1-76; P0CG48 1-76, K48R, G76 joined by an isopeptide bond to K48 of the other ubiquitin | K48 joined by an isopeptide bond to G76 of Ub-K48R).
T4 construct: Ub-K48R (distal, by the methods): ubiquitin, human; Ub-EDGEGEE (proximal, by the methods): ubiquitin, human; 6-residue linker added to the ubiquitin C-terminal end; Two ubiquitins joined covalently K48-G76; The results call the extended moiety distal, the methods call it proximal; also called K48-linked diubiquitin with Ub-EDGEGEE; source: made enzymatically (E1 from R&D Systems, E2-25K) from …
Described as above. The conditions noted are these: both partners purified.

No end group written: not given here.

B1: EDGEGEE peptide (peptide)
peptide: EDGEGEE
notes: acidic peptide chosen by the authors; also called acidic peptide; source: synthetic peptide (GenScript)
Turning to B1, the EC50 with hRpn13_ΔMTT was 637 ± 51 µM.

B2: hRpn2 (940–953) (peptide)
peptide: QEPEPPEPFEYIDD
notes: source: synthetic peptide (GenScript Biotech; for the fluorescence polarization assay bought: New England Peptide)
As to B2, the EC50 with hRpn13_ΔMTT is 0.32 ± 0.02 µM.

B3: hRpn13 Pru (1–150) (domain or fragment, human)
chain: GPGSMTTSGALFPSLVPGSRGASNKYLVEFRAGKMSLKGTTVTPDKRKGLVYIQQTDDSLIHFCWKDRTSGNVEDDLIIFPDDCEFKRVPQCPSGRVYVLKFKAGSKRLFFWMQEPKTDQDEEHCRKVNEYLNNPPMPGALGASGSSGHELSAL
notes: four non-native residues (aG-bP-cG-dS) left at the N-terminus after PreScission cleavage of the purification tag; hRpn13 (ADRM1), human, residues 1-150 holding the Pru domain; 15N-labelled (M9 medium) for the NMR experiments, unlabelled (LB) for crystallography; S4-N20 are not seen in the electron density; also called hRpn13 (1–150); Pru-A; source: E. coli BL21(DE3) pLysS, purified (Talon resin, …)
B3: the binding result in data set [1] was “binds”. Regarding PPEPFEYIDD (source: bought: New England Peptide) [hRpn2 (944–953)], the EC50 with hRpn13_ΔMTT was 87 ± 6 µM. Take B4: in the data set with hRpn13_ΔMTT, the binding result is on record as “binds”. With B5, it took 0.043 ± 0.007 µM to reach a half-maximal effect in data set [2] (EC50). Further, the binding result with K48-diUb^D77, with ubiquitin, with K48-diUb^ENT and in the data set with K48-diUb^EDGEGEE was “binds” in each case.
